Experimental data: patent publication US20240182561A1 (Regeneron, published 2024)
Like-named read-outs stand apart in the source and are kept apart here.

T1: mouse CACNG1 expressed on cells (mouse, UniProt O70578 1-223)
T1 construct: whole, on cells; Transfected in HEK293/mCACNG1; endogenous in C2C12 myotubes and wildtype mouse myofibers; Each row names the cell type under assay; also called mCACNG1; HEK293/mCACNG1
T1 sequence (looked up): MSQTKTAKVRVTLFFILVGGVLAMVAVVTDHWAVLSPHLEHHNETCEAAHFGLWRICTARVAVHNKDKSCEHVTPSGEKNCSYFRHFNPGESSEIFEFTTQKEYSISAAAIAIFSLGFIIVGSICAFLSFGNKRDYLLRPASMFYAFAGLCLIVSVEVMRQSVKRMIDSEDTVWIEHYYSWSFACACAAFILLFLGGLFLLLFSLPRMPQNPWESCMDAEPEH

B1: REGN10712 (antibody, human IgG4 S228P, lambda, V domains shown)
VH: QVQLVESGGGVVQPGRSLRLSCAASGFTFSTYGMYWVRQTPGKGLEWVTVISFDGNKKYYADSVKGRFTISRDNSKNTLFLQMNSLKTEDTAVYYCAKSSNWNYGSFDIWGQGTMVTVSS
VL: QSVLTQPPSVSGAPGQRVTISCTGSSSNIGAGYDVHWYQQLPGTAPRLLISYNSNRPSGVPDRFSGSKSGTSASLAITGLQAEDEADYYCQSYDRSLSGSVFGGGTQLTVLG
notes: hIgG4
B2: REGN10716 (antibody, human IgG4 S228P, kappa)
heavy: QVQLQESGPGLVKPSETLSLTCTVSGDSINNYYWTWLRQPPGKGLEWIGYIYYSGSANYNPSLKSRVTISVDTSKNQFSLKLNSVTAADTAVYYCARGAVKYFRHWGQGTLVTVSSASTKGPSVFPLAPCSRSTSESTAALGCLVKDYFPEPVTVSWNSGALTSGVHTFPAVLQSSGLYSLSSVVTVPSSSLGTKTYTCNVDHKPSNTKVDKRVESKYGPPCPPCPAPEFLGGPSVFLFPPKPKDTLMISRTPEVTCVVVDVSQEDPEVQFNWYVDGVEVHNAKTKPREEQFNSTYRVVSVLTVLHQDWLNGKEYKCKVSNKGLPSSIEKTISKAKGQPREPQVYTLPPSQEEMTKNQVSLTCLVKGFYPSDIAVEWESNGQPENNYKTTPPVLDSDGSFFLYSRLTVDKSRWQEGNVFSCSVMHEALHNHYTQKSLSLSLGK
light: EIVLTQSPGTLSLSPGERATLSCRASQTINHNNLAWYQQRPGQAPRLLIYGASNRATAIPDRFSGSGSGTDFTLTISRLEPEDFEVYSCQQYGSLPLTFGGGTKVEIKRTVAAPSVFIFPPSDEQLKSGTASVVCLLNNFYPREAKVQWKVDNALQSGNSQESVTEQDSKDSTYSLSSTLTLSKADYEKHKVYACEVTHQGLSSPVTKSFNRGEC
notes: hIgG4
B3: REGN14571-M3004 (antibody, human IgG1, kappa, N297Q)
heavy chain: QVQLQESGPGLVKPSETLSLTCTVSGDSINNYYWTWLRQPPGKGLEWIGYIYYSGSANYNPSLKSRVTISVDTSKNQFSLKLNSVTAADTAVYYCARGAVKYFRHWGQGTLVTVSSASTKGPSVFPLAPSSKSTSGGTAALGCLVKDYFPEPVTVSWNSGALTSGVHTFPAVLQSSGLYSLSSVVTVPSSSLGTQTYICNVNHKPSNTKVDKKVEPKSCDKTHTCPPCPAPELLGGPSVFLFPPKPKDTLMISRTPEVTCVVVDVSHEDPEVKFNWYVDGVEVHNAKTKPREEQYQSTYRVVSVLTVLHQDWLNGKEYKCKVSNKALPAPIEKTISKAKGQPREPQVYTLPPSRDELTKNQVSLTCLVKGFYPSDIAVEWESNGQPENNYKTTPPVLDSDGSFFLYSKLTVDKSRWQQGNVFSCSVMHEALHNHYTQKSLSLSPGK
light chain: B2 light
modifications: N297Q; DHT linker-payload M3004 conjugated, DAR about 4
B4: H2aM31929N (antibody, V domains shown)
VH: QVQLVESGGGVVQPGRSLRLSCTASGITFRNYGMHWVRQAPGKGLEWVAVMWYDGSNKYYADSVKGRFTISGDNSKVYLQMNSLRAEDTAVYYCARRGTIRTAAPFDYWGQGTLVTVSS
VL: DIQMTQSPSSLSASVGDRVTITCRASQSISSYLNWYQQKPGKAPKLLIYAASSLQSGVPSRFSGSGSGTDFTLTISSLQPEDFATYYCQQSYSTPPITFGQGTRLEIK
notes: also called H2aM31929N/REGN10728 (lot H2aM31929N-L1)
B5: REGN14572 (antibody, human IgG1, kappa, N297Q)
heavy: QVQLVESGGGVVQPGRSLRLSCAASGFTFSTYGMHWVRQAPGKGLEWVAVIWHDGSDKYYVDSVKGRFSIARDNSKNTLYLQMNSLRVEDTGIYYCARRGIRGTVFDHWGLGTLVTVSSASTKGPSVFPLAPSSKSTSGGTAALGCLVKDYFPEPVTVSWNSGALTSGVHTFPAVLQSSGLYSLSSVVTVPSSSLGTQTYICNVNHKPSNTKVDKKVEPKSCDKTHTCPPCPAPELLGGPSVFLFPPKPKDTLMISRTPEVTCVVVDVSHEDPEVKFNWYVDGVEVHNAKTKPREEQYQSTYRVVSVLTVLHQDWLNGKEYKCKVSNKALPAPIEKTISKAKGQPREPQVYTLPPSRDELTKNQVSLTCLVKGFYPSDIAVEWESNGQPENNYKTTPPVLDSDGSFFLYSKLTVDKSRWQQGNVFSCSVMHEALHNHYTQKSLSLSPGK
light: DIQMTQSPSTLSASVGDRVTLTCRASQSISNKLAWYQQKPGKAPNLLIYKASNLESGVPSRFSGSGSGTEFTLTISSLQPDDFATYYCQQYNSYSWTFGQGTKVEIKRTVAAPSVFIFPPSDEQLKSGTASVVCLLNNFYPREAKVQWKVDNALQSGNSQESVTEQDSKDSTYSLSSTLTLSKADYEKHKVYACEVTHQGLSSPVTKSFNRGEC
B6: REGN9908 (antibody, mouse IgG2b, V domains shown)
VH: EVQLLESGGGLAQPGGSLRLSCAASGFTFSSYAMSWVRQAPGKGLEWVSSVSGSGGTTYYAASVKGRFTVSRDNSKKTLYLQMNSLRAEDTAVYYCGKGGYCSSSGCRHYGMDVWGQGTTVTVSA
VL: QSVLTQPPSASGTPGQRVAISCSGSNSNIGNNYLYWYQQIPGTTPKLLIYRNNQRPSGVPDRFSASKSGTSASLAISGLRSGDEADYYCAAWDDSLSGYVFGTGTKVTVLG
notes: mIgG2b

Columns and labels:
[1] = molecular target: T2, human CACNG1 expressed on cells (human, UniProt Q06432 1-222); assay: imaging cell binding, HuSKM myotubes
T2 construct: also called hCACNG1; HEK293/hCACNG1
Experimental: (§1) HuSKM were seeded in collagen-coated 96-well plates (Greiner Bio-One #655956) at 8,500 cells/well and grown for 24 hours. The growth media was changed to MyoTonic Differentiation Media (Cook Myosite Cat #MD-5555) and replaced every 2 days. Myotubes were assayed after 6 days of differentiation. C2C12 mouse myoblasts were maintained in DMEM with 10% FBS and 1% penicillin-streptomycin supplement and grown in a 37° C. incubator with 5% CO₂. C2C12 cells were seeded in collagen-coated 96-well plates (Greiner Bio-One #655956) at 10,000 cells/well for the cell binding assay and 5,000 cells/well for the cell killing assay. After 24 hours, growth media was replaced with differentiation media (DMEM with 2% horse serum) and placed in a 37° C. incubator with 7.5% CO₂. C2C12 myotubes were assayed after 3 days of differentiation. HEK293/hCACNG1, HEK293/mCACNG1, and HEK293 cells were seeded at 10,000 cells (cell binding assay) or 2,000 (cell killing assay) per well in 96-well black collagen coated plates (Greiner Bio-One, cat #655956) in complete growth media and grown overnight at 37° C. in 5% CO₂.
(§2) Relative binding of anti-CACNG1 antibodies was assessed across the entire panel of cell lines via imaging analysis. […] After one wash with antibody dilution buffer, samples were fixed in CytoFix (BD Biosciences, Cat #554655) diluted 1:1 in PBS and supplemented with a 1:2000 dilution of Hoechst 33342 (Thermo, Cat #H1399) for 20 minutes on ice. Images were acquired with a 10× objective on the Opera Phenix (Perkin Elmer) and relative fluorescence units (RFU) was determined using Harmony software (Perkin Elmer).

[2] = molecular target: T3, nanodisc embedded human CACNG1 expressed with a C-terminal PADRE-Flag-His tag (human, UniProt Q06432 1-222); assay: SPR, anti-His-captured nanodisc, 25 C
T3 construct: Captured on an anti-His Biacore surface; also called human CACNG1 nanodisc; CACNG1 nanodisc; not shown: C-terminal tag
Experimental: Equilibrium dissociation constants (KD values) for nanodisc embedded human CACNG1 expressed with a C-terminal […] tag (human CACNG1 nanodisc; concentration 0.82 mg/ml) binding to purified anti-CACNG1 antibodies were determined using a real-time surface plasmon resonance biosensor technology with a Biacore T200 instrument. The CM5 Biacore sensor surface was derivatized by amine coupling with a monoclonal mouse anti-His antibody (Cytiva; Marlborough, MA). All Biacore binding studies were performed in a buffer composed of 0.01M HEPES, 0.15M NaCl, 1 mM CaCl₂, 0.5 mM MgCl₂, pH 7.4 (HBS-N++ running buffer). Different concentrations of anti-CACNG1 antibodies (ranging from 300 nM to 12 nM in 5-fold serial dilutions) prepared in HBS-N++ running buffer were injected over the captured human CACNG1 nanodisc at a flow rate of 30 μL/minute. Antibody association was monitored for 2 minutes while dissociation was monitored in HBS-N++ running buffer for 5 minutes. At the end of each cycle, the human CACNG1 nanodisc capture surface was regenerated using three 10 second injections of 10 mM Gly pH1.5. All binding kinetics experiments were performed at 25° C.
The specific SPR-Biacore sensorgrams were obtained by a double referencing procedure. The double referencing was performed by first subtracting the signal of each injection over a reference surface (anti-His) from the signal over the experimental surface (anti-His captured human CACNG1 nanodisc) thereby removing contributions from refractive index changes. In addition, running buffer injections were performed to allow subtraction of the signal changes resulting from the dissociation of captured antibodies from the coupled anti-His surface. Kinetic association (kₐ) and dissociation ([…]) rate constants were determined by fitting the real-time sensorgrams to a 1:1 binding model using Scrubber v2.0c curve fitting software. Binding dissociation equilibrium constants (KD) and dissociative half-lives (t %) were calculated from the kinetic rate constants as: […]

[3] = molecular target: T1, mouse CACNG1 expressed on cells; assay: imaging cell binding, C2C12 mouse myotubes
Experimental: as §1, §2

[4] = molecular target: T2, human CACNG1 expressed on cells; assay: cell-based or functional assay
[5] = molecular target: T1, mouse CACNG1 expressed on cells; assay: cell-based or functional assay
[6] = molecular target: T2, human CACNG1 expressed on cells; assay: imaging cell binding, HEK293/hCACNG1
Experimental: as §1, §2

[7] = molecular target: T1, mouse CACNG1 expressed on cells; assay: imaging cell binding, HEK293/mCACNG1
Experimental: as §1, §2

[8] = molecular target: T2, human CACNG1 expressed on cells; assay: imaging cell binding, HuSKM myotubes; remark: listed apart in the source
Experimental: as §1, §2

[9] = molecular target: T2, human CACNG1 expressed on cells; assay: imaging cell binding, HEK293/hCACNG1; remark: listed apart in the source
Experimental: as §1, §2

[10] = molecular target: T1, mouse CACNG1 expressed on cells; assay: imaging cell binding, C2C12 mouse myotubes; remark: listed apart in the source
Experimental: as §1, §2

[11] = molecular target: T2, human CACNG1 expressed on cells; assay: cell-based or functional assay; remark: listed apart in the source
[12] = molecular target: T2, human CACNG1 expressed on cells; assay: cell-based or functional assay; remark: listed apart in the source
[13] = molecular target: T2, human CACNG1 expressed on cells; assay: cell-based or functional assay; remark: listed apart in the source
[14] = molecular target: T2, human CACNG1 expressed on cells; assay: cell-based or functional assay; remark: listed apart in the source

T3 sequence (Q06432 whole entry): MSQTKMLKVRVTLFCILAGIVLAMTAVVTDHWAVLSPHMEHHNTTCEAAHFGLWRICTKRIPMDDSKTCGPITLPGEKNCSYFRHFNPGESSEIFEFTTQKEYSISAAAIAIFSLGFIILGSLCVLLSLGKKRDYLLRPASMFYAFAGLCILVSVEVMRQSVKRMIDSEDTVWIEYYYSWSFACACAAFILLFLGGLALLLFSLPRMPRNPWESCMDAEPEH
T2 sequence (Q06432 whole entry): as above

Row | Binder | EC50 [1] | S/N [1] | Kd [2] | koff [2] | kon [2] | mAb bound at 300 nM [2] | t1/2 [2] | EC50 [3] | S/N [3] | % KILL, indirect cell killing, HEK293/hCACNG1 [4] | % KILL, indirect cell killing, HuSKM [4] | EC50/IC50, indirect cell killing, HEK293/hCACNG1 [4] | EC50/IC50, indirect cell killing, HuSKM [4] | % KILL, indirect cell killing, C2C12 [5] | % KILL, indirect cell killing, HEK293/mCACNG1 [5] | EC50/IC50, indirect cell killing, C2C12 [5] | EC50/IC50, indirect cell killing, HEK293/mCACNG1 [5] | EC50 [6] | EC50 [8] | S/N [8] | other results
1 | B1 | 0.053 nM | 102 fold | 4.53 nM | 0.00332 s⁻¹ | 733000 M⁻¹ s⁻¹ | 31 RU | 3.5 min | > 100 nM | 8.6 fold |  |  |  |  |  |  |  |  |  |  |  | 
2 | B2 | 12 nM | 81.1 fold | 0.114 nM | 8.36e-05 s⁻¹ | 730000 M⁻¹ s⁻¹ | 31 RU | 138 min | > 100 nM | 5.2 fold | 95.1% | 61.7% | 0.00295 nM | 0.34 nM | 99.9% | 91.2% | 0.0167 nM | 0.00893 nM | > 100 nM | 13 nM | 466 fold | S/N [6]: 35.9 fold; EC50 [7]: > 100 nM; S/N [7]: 21.4 fold; EC50 [9]: > 100 nM; S/N [9]: 2.2 fold; EC50 [10]: > 100 nM; S/N [10]: 6.3 fold
3 | B3 |  |  |  |  |  |  |  |  |  |  |  |  |  |  |  |  |  |  |  |  | EC50 of androgen receptor luciferase reporter activation (RLU) by the DHT conjugate REGN14571-M3004 in hCACNG1.AR.Luc LNCaP cells, 24 hours; concentration adjusted for DAR [11]: 7.83 nM; EC50 of androgen receptor luciferase reporter activation (RLU) by the DHT conjugate REGN14571-M3004 in hCACNG1.AR.Luc LNCaP cells, 48 hours; concentration adjusted for DAR [12]: 6.95 nM; EC50 of androgen receptor luciferase reporter activation (RLU) by the DHT conjugate REGN14571-M3004 in hCACNG1.AR.Luc LNCaP cells, 72 hours; concentration adjusted for DAR [13]: 5.44 nM
4 | B4 |  |  | 0.745 nM | 0.000559 s⁻¹ | 750000 M⁻¹ s⁻¹ | 25 RU | 20.7 min |  |  | 95% | 96.3% | 0.00277 nM | 0.031 nM | 7.5% | 18.3% | > 10 nM | > 1 nM | 6.2 nM | 1.9 nM | 252 fold | S/N [6]: 84 fold; S/N [7]: 1 fold; S/N [10]: 1.2 fold; binding result [10]: no binding (tested: 100 nM highest tested)
5 | B5 |  |  |  |  |  |  |  |  |  |  |  |  |  |  |  |  |  |  |  |  | EC50 of androgen receptor luciferase reporter activation (RLU) by the DHT conjugate REGN14572-M3004 in hCACNG1.AR.Luc LNCaP cells, 24 hours; concentration adjusted for DAR [11]: 11.2 nM; EC50 of androgen receptor luciferase reporter activation (RLU) by the DHT conjugate REGN14572-M3004 in hCACNG1.AR.Luc LNCaP cells, 48 hours; concentration adjusted for DAR [12]: 11.9 nM; EC50 of androgen receptor luciferase reporter activation (RLU) by the DHT conjugate REGN14572-M3004 in hCACNG1.AR.Luc LNCaP cells, 72 hours; concentration adjusted for DAR [13]: 10.3 nM
6 | B6 |  |  | 9.57 nM | 0.00402 s⁻¹ | 419000 M⁻¹ s⁻¹ | 21 RU | 2.9 min |  |  |  |  |  |  |  |  |  |  |  | 14.8 nM | 164 fold | EC50/IC50, indirect cell killing, HuSKM [14]: 0.0859 nM
